The values below come from PMC11374805.

One may read the Kd as the free concentration of one partner at which half of the binding sites on the other are occupied at equilibrium, for simple one-to-one binding. Low readings indicate higher affinity, high ones lower affinity.

The assay has as its target peptidase domain (PD) of human ACE2 (human) (UniProt Q9BYF1). The experiment in a line: BLI. (In general: In BLI a coated tip is dipped into the sample, and binding shifts an interference pattern.)

In turn, “RBD (319-541 a.a) of S protein from SARS-CoV-2 Omicron variant BA.2 (domain or fragment)” showed a Kd of 16 nM.
